These binders were tested against acetylcholine receptor (assay: SPR, acetylcholine receptor on CM5 chip, peptide 10 µM).

Binder	Binding affinity (RU)
KLYYRK [6mer-2-567]	146
KGFQKK [6mer-2-568]	142
RWQLRK [6mer-2-569]	135
RVYYKR [6mer-2-570]	148
RGYQRR [6mer-2-571]	135
KSQRRK [6mer-2-572]	148
KLYLRR [6mer-2-573]	121
KGVYRK [6mer-2-574]	153
RGYSRK [6mer-2-575]	139
KGVSRR [6mer-2-576]	139
KRVQRR [6mer-2-577]	139
RSVLRK [6mer-2-578]	135
RWQYRK [6mer-2-579]	135
KWQQRR [6mer-2-580]	121
RVQQKR [6mer-2-581]	139
RWQTRK [6mer-2-582]	148

Binder	Binding affinity (RU)
KSVTKK [6mer-2-583]	154
KRLTRK [6mer-2-584]	148
RSFRRK [6mer-2-585]	136
RWLSRK [6mer-2-586]	121
KRISKR [6mer-2-587]	148
KWFYKK [6mer-2-588]	149
RWQQRK [6mer-2-589]	153
KGRLRK [6mer-2-590]	148
KGILRR [6mer-2-591]	146
RWVLRK [6mer-2-592]	122
RSQLKR [6mer-2-593]	139
RWYRRR [6mer-2-594]	139
KLRCKK [6mer-2-595]	154
KGIQKK [6mer-2-596]	153
KQFLRK [6mer-2-597]	154

Reference: US20250011363A1, “OPTIMIZED SHORTENED PEPTIDE THAT BINDS TO ACETYLCHOLINE RECEPTOR, AND USE THEREOF” (SKINMED CO., LTD., priority 2021, published 2025)
